Experiments:
[1] = biological target: Hel308 Mbu-E284Faz E284Faz (Methanococcoides burtonii) (UniProt Q12WZ6); settings: four nitroindoles between SEQ 155 3' end and SEQ 154 5' end; percent of movements reaching polyT; nanopore; 960 mM KCl, 10 mM MgCl2, 1 mM ATP, +120 mV
[2] = biological target: Hel308 Mbu-E284Faz heat treated E284Faz (Methanococcoides burtonii) (UniProt Q12WZ6); settings: four nitroindoles between SEQ 155 3' end and SEQ 154 5' end; percent of movements reaching polyT; 500 nM enzyme; nanopore; 960 mM KCl, 10 mM MgCl2, 1 mM ATP
Hel308 Mbu-E284Faz heat treated E284Faz (Methanococcoides burtonii), sequence (Q12WZ6 whole entry): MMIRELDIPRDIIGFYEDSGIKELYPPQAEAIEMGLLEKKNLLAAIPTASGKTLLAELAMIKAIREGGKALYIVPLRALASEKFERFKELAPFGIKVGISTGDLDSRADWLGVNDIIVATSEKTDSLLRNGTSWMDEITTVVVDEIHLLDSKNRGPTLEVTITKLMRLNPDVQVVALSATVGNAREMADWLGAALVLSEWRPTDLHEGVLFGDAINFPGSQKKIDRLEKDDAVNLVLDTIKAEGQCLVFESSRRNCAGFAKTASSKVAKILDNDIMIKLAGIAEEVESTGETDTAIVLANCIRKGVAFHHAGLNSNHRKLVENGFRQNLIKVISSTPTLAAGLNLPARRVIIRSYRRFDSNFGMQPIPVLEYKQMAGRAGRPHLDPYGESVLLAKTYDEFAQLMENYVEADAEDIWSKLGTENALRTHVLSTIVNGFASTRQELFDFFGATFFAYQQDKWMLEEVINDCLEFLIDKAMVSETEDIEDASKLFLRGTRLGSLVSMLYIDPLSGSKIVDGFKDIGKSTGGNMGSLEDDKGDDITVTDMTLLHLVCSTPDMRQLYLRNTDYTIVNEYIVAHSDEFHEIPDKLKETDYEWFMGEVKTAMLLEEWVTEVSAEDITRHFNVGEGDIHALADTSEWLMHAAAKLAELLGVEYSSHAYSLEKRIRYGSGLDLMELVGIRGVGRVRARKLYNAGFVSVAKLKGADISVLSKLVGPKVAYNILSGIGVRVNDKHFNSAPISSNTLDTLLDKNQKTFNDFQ

Hel308 Mbu-E284Faz E284Faz (Methanococcoides burtonii), sequence (Q12WZ6 whole entry): as above

3.6 kb DNA
activity [1]: 28% | activity [2]: 71%

— US20240417704
